# Assay results as given in the RNAGym collection of RNA variant scans (doi:10.1073/pnas.2313332121).
# Fewer inactive variants are shown than the library holds.
# B1: TPR 5TU (parent)
# chain: GGAUCUUCUCGAUCUAACAAAAAAGACAAAUCUGCCACAAAGCUUGAGAGCAUCUUCGGAUGCAGAGGCGGCAGCCUUCGGUGGCGCGAUAGCGCCAACGUUCUCAACUAUGACACGCAAAACGCGUGCUCCGUUGAAUGGAGUUUAUCAUG
# Variants of: B1
# Assay: polymerase ribozyme fitness, log enrichment relative to wild type (log ratio); higher = more active; in vitro selection for triplet polymerase activity
# In short: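 PCR was used to build mutant libraries for each subunit of a heterodimeric triplet polymerase ribozyme, which were then transcribed. A single in vitro selection round, in triplicate, used a frozen incubation at −7 °C and recovered extended constructs by gel excision, streptavidin beads and RT-PCR. Fitness is the logarithm of genotype enrichment relative to wild-type enrichment, averaged over replicates with inverse-variance weights. The logarithm is base 2, and after Illumina sequencing only genotypes with ≥10 input reads and ≥1 read per output were kept.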
row,Variant,polymerase ribozyme fitness (log ratio)
1,G88U C96G A106U G143A,≤ -4.2
2,A91U A147C,≤ -4.2
3,G88U G92C G117U,-3.57
4,A91G A147U,-1.52
5,G92A C103U C116U A121G,-3.47
6,A91U A121U U144A,≤ -4.2
7,G88A C96U C108G,≤ -4.2
8,A91G C125A,-3.21
9,A91C U102A C132U,-3.54
10,C87U C96U U104C A107U G141U,≤ -4.2
11,C96A U102A G143C,-4.16
12,C87U A120C G152U,-3.33
13,A91G A106G A150U,-0.616
14,C95A G100U A106G A110G A142U,-4.01
15,C96U C125G,-0.976
16,C93G C105U A137G,-4.06
17,U90A C105G,≤ -4.2
18,G88C U144G,-3.7
19,C93G A119G,-3.48
20,C93A A121G U144A,-1.18
21,C96G U148C,-1.42

row,Variant,polymerase ribozyme fitness (log ratio)
1,C96G U148G,-4.12
2,C87G C132U,≤ -4.2
3,C87G C125U,≤ -4.2
4,C96G G143A,-2.42
5,C96G G143U,-3.01
6,C93U G126A U139C,-4.1
7,G94A C132G,-3.64
8,A89C C131A,-3.23
9,G92U C125A,-1.82
10,G88A G126A,-3.7
11,C95A A98U U104G A106C,≤ -4.2
12,G94A A97G G124A,-1.65
13,C93U G124A C131U U139G,0.429
14,G92C C108G G112C C123A G136C A137C A142G,≤ -4.2
15,C96U C118U,-0.211
16,C96U G136U,-2.74
17,C96U G136A,0.246
18,C87G G126A,-4.11
19,A89U G92U A121C G140U,-3.5
20,A91G A115C,-3.57
21,C96U G140C,-3.73

row,Variant,polymerase ribozyme fitness (log ratio)
1,C93A U151A,≤ -4.2
2,A89C U101C U146A,0.0757
3,G94C U101A C105G G141C,≤ -4.2
4,G88A U104G,≤ -4.2
5,C95U C116G,0.0419
6,G92U A147U,0.301
7,C87A U90C C105U,-3.59
8,C87U C125U,-2.13
9,C87U C125G,-1.53
10,G94A C125U,-1.67
11,A91G G141U,-1.92
12,A91G G141C,-2.86
13,A91C U109C,≤ -4.2
14,G94C A138G G141A G143A,≤ -4.2
15,C96A G124U C149G,-3.82
16,C93U A121U,-0.267
17,A91U U111G U151G,≤ -4.2
18,C87U A142U,-0.783
19,C93U A119U A121C,-1.6
20,G92A A98U U111A C123U U144A A150C,≤ -4.2
21,C87U,-0.596

row,Variant,polymerase ribozyme fitness (log ratio)
1,C87U U148G,-3.83
2,C87U G140A,-3.7
3,A89G A120C,-1.41
4,U90G G92C,≤ -4.2
5,C93G A138G,≤ -4.2
6,C93U A121U U127C,-2.87
7,C87U A113U C116U,-1.99
8,A89G A119C,-1.39
9,C93A G133C,-4.09
10,C96A A97U C118U,-0.741
11,C96A A138U G140U,≤ -4.2
12,G88U A97G A98U G133U A150U,≤ -4.2
13,C96A G126A,-1.95
14,A91G C95U,-2.75
15,C93U C105G,-3.36
16,C96A A113U U144A,-2.58
17,G94C U127A,-3.75
18,C87U A113U A122G G136U U144C,-3.67
19,C93A U109G C123G,-3.37
20,G94A G124A U146A,-1.09
21,C87A U145A,-4.17
